Data: patent publication US20110129478A1

Columns and labels:
[1] = biological target: human CD179b protein on the cell membrane surface of human cancer cell lines (human) (UniProt P15814); assay: flow cytometry on human cancer cell lines expressing CD179b, against mouse IgG2a isotype control
[2] = biological target: human CD179b protein on the cell membrane surface of human cancer cell lines (human) (UniProt P15814); assay: cell-based or functional assay

Sequence of UniProt P15814 (P15814 38-213): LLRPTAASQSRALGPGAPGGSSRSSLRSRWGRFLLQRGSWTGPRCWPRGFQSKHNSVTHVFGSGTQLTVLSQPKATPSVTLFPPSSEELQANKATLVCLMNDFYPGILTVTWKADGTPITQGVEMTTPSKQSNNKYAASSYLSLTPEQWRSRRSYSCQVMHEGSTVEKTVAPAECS

“mouse anti-human CD179b antibody (clone name: GA170; manufactured by Santa Cruz Biotechnology)” was tested, and the fluorescence intensity higher than that of the isotype control [1] was > 10%, the ADCC activity (chromium 51 release), BDCM cells [2] was 32.3% and the ADCC activity (chromium 51 release), Namalwa cells [2] was 32.6%. For the same substance, the ADCC activity (chromium 51 release), RPMI1788 cells [2] was 28.3%, the CDC activity (chromium 51 release), BDCM cells [2] was 21.2% and the CDC activity (chromium 51 release), Namalwa cells [2] was 30.5%. The CDC activity (chromium 51 release), RPMI1788 cells [2] was 30.5%.
